Target: T1, Amyloid-beta 1-42 (UniProt P05067 672-713)
T1 construct: domain: Amyloid-beta 1-42; Bought peptide; 1-42 counts on the Aβ peptide, not on APP; also called Aβ1-42
Experiment: SPR, BIAcore 2000; antibody captured, Aβ flowed over
Protocol: Antibody affinity (KD=Kd/Ka) was determined using a BlAcore biosensor 2000 and data analyzed with BlAevaluation (v. 3.1) software. A capture antibody (rabbit anti-mouse) was coupled via free amine groups to carboxyl groups on flow cell 2 of a biosensor chip (CM5) using N-ethyl-N-dimethylaminopropyl carbodiimide and N-hydroxysuccinimide (EDC/NHS). A non-specific rabbit IgG was coupled to flow cell 1 as a background control. Monoclonal antibodies were captured to yield 300 resonance units (RU). […] To regenerate the chip, bound anti-Aβ antibody was eluted from the chip using a wash with glycine-HCI (pH 2). A control injection containing no amyloid-beta served as a control for baseline subtraction.

T1 sequence (P05067 672-713 limits assumed): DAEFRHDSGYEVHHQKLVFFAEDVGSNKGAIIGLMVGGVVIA

- Kd: 4 pM
B1: Humanized 266 antibody (antibody, human IgG1, kappa, V domains shown)
VH: EVQLVESGGGLVQPGGSLRLSCAASGFTFSRYSMSWVRQAPGKGLELVAQINSVGNSTYYPDTVKGRFTISRDNAKNTLYLQMNSLRAEDTAVYYCASGDYWGQGTLVTVSS
VL: DVVMTQSPLSLPVTLGQPASISCRSSQSLIYSDGNAYLHWFLQKPGQSPRLLIYKVSNRFSGVPDRFSGSGSGTDFTLKISRVEAEDVGVYYCSQSTHVPWTFGQGTKVEIKR
modifications: N-glycosylated at Asn 56 (fully) and Asn 292
notes: Human IgG1 (pVg1) / kappa, expressed in Sp2/0; also called Hu266

From patent publication US20040192898A1 (published 2004)
